Literature values, collected in paper PMC5691641.

Target: Bax (Homo sapiens) (UniProt Q07812)
Sequence (Q07812 whole entry): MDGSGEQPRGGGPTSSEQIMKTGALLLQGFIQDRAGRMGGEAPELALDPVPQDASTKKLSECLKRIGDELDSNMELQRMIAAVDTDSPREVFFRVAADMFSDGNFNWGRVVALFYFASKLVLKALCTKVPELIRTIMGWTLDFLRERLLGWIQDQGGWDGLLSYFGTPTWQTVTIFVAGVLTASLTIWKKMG

Chain of vMIA (P16778 23-487): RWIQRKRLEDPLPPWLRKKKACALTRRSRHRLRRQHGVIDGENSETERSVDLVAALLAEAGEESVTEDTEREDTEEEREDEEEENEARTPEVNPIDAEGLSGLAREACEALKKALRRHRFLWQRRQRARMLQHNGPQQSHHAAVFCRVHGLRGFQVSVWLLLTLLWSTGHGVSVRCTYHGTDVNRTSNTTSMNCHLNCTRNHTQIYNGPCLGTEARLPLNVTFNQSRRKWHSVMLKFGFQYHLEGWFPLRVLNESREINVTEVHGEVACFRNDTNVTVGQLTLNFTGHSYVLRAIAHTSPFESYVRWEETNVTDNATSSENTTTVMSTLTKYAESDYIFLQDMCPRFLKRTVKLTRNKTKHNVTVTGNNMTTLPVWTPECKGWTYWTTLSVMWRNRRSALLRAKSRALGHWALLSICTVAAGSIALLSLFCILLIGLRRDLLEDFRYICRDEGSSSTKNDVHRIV

For vMIA (from UniProt P16778), the Kd is listed as 0.022 µM.
